Values belong to the binder of their own block, whether it stands above or below them.
Legend:
[1] = biological target: T1, Histidine-tagged recombinant human FcγRI (CD64) (human, UniProt P12314 16-288, limits assumed); assay: SPR, His-FcγRI captured; Expt 2 Rep 1;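 also: antibody analyte injected at 100 µg/mL for 1 min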
T1 construct: bought

cynomolgus monkey FcRn = biological target: T2, cynomolgus monkey FcRn (cynomolgus monkey, UniProt Q8SPV9 24-297; Q8SPW0 21-119); assay: SPR pH 6.0, FcRn captured
T2 construct: bought; also called cynomolgus FcRn

[2] = biological target: T1, Histidine-tagged recombinant human …; assay: SPR, His-FcγRI captured; CHO-produced; Expt 2 Rep 2;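 also: antibody analyte injected at 100 µg/mL for 1 min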
human FcRn [3] = biological target: T3, human FcRn (human, UniProt P55899 24-297; P61769 21-119); assay: SPR pH 6.0, FcRn captured; Expt 1
T3 construct: bought

[4] = biological target: T1, Histidine-tagged recombinant human …; assay: SPR, His-FcγRI captured; Expt 1 Rep 2;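 also: antibody analyte injected at 100 µg/mL for 1 min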
[5] = biological target: T1, Histidine-tagged recombinant human …; assay: SPR, His-FcγRI captured; Expt 1 Rep 1;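 also: antibody analyte injected at 100 µg/mL for 1 min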
[6] = biological target: T1, Histidine-tagged recombinant human …; assay: SPR, His-FcγRI captured; CHO-produced; Expt 2 Rep 1;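 also: antibody analyte injected at 100 µg/mL for 1 min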
[7] = biological target: T1, Histidine-tagged recombinant human …; assay: SPR, His-FcγRI captured; Expt 3;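 also: biacore T200 SPR at 25 °C, Fc-variant antibodies at 100 µg/mL flowed 1 min over anti-His-captured FcγRI, signal taken just before injection end minus a buffer blank cycle; antibody analyte injected at 100 µg/mL for 1 min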
[8] = biological target: T1, Histidine-tagged recombinant human …; assay: SPR, receptor captured on anti-His chip
rat FcγRI = biological target: T4, rat FcγRI (rat, UniProt A0A0B4J2J0 16-285); assay: SPR, receptor captured on anti-His chip
T4 construct: bought; captured on anti-histidine chip
T4 sequence: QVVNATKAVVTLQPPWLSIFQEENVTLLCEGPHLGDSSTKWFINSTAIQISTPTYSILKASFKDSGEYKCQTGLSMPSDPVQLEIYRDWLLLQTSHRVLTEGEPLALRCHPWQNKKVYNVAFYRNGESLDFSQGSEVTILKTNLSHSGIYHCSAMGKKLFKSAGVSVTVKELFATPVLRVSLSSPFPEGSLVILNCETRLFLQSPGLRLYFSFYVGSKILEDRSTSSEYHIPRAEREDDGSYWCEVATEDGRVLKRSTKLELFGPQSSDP

mouse FcγRI = biological target: T5, mouse FcγRI (mouse, UniProt P26151 25-297); assay: SPR, receptor captured on anti-His chip
T5 construct: bought; captured on anti-histidine chip
T5 sequence (looked up): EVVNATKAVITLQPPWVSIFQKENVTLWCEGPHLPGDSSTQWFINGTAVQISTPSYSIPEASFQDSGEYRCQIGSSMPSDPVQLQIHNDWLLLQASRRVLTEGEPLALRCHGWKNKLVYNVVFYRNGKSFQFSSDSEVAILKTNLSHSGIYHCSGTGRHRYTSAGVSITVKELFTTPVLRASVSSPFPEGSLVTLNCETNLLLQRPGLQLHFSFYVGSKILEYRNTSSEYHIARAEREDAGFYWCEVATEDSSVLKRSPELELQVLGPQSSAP

rabbit FcγRI = biological target: T6, rabbit FcγRI (rabbit); assay: SPR, receptor captured on anti-His chip
T6 construct: bought; captured on anti-histidine chip

[9] = biological target: T1, Histidine-tagged recombinant human …; assay: SPR, His-FcγRI captured; mean;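 also: biacore T200 SPR at 25 °C, anti-His surface capturing FcγRI, Fc-variant antibodies injected at 100 µg/mL for 1 min, signal near injection end minus third buffer blank, three repeats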
[10] = biological target: T1, Histidine-tagged recombinant human …; assay: SPR, His-FcγRI captured; CHO-produced; Expt 1 Rep 2;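 also: antibody analyte injected at 100 µg/mL for 1 min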
[11] = biological target: T1, Histidine-tagged recombinant human …; assay: SPR, His-FcγRI captured; CHO-produced; Expt 1 Rep 1;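 also: antibody analyte injected at 100 µg/mL for 1 min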
human FcγRIIB = biological target: T7, human FcγRIIB (human, UniProt P31994 43-217); assay: SPR, receptor captured on anti-His chip
T7 construct: bought
T7 sequence (looked up): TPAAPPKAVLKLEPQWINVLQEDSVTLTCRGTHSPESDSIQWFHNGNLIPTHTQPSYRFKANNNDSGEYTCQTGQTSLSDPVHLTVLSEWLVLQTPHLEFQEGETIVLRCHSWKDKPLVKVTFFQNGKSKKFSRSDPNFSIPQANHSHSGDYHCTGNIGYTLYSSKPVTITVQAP

human FcγRIIIA (F158) [12] = biological target: T8, human FcγRIIIA (F158) (human, UniProt P08637 17-208); assay: SPR, receptor captured on anti-His chip
T8 construct: bought; F158 allele
T8 sequence (P08637 17-208 limits assumed): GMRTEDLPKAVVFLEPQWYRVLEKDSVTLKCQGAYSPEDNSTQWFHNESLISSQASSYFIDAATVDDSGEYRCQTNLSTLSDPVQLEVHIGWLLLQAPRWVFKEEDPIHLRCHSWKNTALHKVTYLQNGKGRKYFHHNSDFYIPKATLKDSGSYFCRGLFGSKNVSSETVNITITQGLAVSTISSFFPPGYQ

[13] = biological target: T9, human FcγRIIIB (NA2 allotype) (human, UniProt O75015 17-200, limits assumed); assay: SPR, receptor captured on anti-His chip
T9 construct: bought; NA2 allotype

human FcγRIIA (R131) = biological target: T10, human FcγRIIA (R131) (human, UniProt P12318 34-218, limits assumed); assay: SPR, receptor captured on anti-His chip
T10 construct: bought; R131 allele
T10 sequence (looked up): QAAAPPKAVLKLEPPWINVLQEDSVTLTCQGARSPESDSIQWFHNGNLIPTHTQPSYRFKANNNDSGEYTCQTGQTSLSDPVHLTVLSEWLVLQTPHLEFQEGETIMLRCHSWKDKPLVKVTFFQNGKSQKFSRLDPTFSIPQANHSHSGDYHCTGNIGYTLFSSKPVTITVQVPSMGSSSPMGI

human FcγRIIIA (F158) [14] = biological target: T8, human FcγRIIIA (F158); assay: SPR, FcγRIIIA captured
human FcRn [15] = biological target: T3, human FcRn; assay: SPR pH 6.0, FcRn captured; Expt 2
[16] = biological target: T1, Histidine-tagged recombinant human …; assay: SPR, His-FcγRI captured; Expt 2;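 also: biacore T200 SPR at 25 °C, Fc-variant antibodies at 100 µg/mL flowed 1 min over anti-His-captured receptor, signal read near injection end minus third buffer blank; antibody analyte injected at 100 µg/mL for 1 min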
[17] = biological target: T1, Histidine-tagged recombinant human …; assay: SPR, His-FcγRI captured; Expt 2 Rep 2;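 also: antibody analyte injected at 100 µg/mL for 1 min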
[18] = biological target: T1, Histidine-tagged recombinant human …; assay: SPR, His-FcγRI captured; Expt 1;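 also: SPR at 25 °C on anti-His antibody chip capturing FcγRI, Fc-variant antibodies injected at 100 µg/mL for 1 min, signal near end of injection minus buffer blank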
[19] = biological target: T11, CD3D/CD3E heterodimer (Sino Biologicals Cat. No. CT038-H2508H) (human, UniProt P04234 22-105; P07766 23-126); assay: ELISA, antigen coated
T11 construct: bought; also called CD3 antigen; human CD3

[20] = biological target: T12, Sheep Fc-CD52 fusion protein (Absolute Antibody Cat. No. PR00205) (human, UniProt P31358 25-36); assay: ELISA, antigen coated, antibody 5 µg/mL
T12 construct: bought; also called CD52 antigen; human CD52; not shown: sheep Fc

[21] = biological target: T11, CD3D/CD3E heterodimer (Sino Biologicals …); assay: ELISA, antigen coated, antibody 5 µg/mL

B1: anti-CD20 (rituximab) human IgG1 wild-type reference (antibody)
heavy: not shown
light: QIVLSQSPAILSASPGEKVTMTCRASSSVSYIHWFQQKPGSSPKPWIYATSNLASGVPVRFSGSGSGTSYSLTISRVEAEDAATYYCQQWTSNPPTFGGGTKLEIKRTVAAPSVFIFPPSDEQLKSGTASVVCLLNNFYPREAKVQWKVDNALQSGNSQESVTEQDSKDSTYSLSSTLTLSKADYEKHKVYACEVTHQGLSSPVTKSFNRGEC
notes: 2-1 and 10.0 are separate lots from HEK293; also called 2-1; 10.0
Corrected response (RU) [1]: 1460 RU
Corrected response (RU) (cynomolgus monkey FcRn): 1440 RU
Corrected response (RU) [2]: 1390 RU
Corrected response (RU) (human FcRn [3]): 647 RU
Corrected response (RU) [4]: 2380 RU
Corrected response (RU) [5]: 2370 RU
Corrected response (RU) [6]: 1350 RU
Corrected response (RU) [7]: 2600 RU
Corrected response (RU) [8]: 3020 RU
Corrected response (RU) (rat FcγRI): 2220 RU
Corrected response (RU) (mouse FcγRI): 1790 RU
Corrected response (RU) (rabbit FcγRI): 2770 RU
Corrected response (RU), Mean [9]: 2590 RU
Corrected response (RU) [10]: 2180 RU
Corrected response (RU) [11]: 2120 RU
Corrected response (RU) (human FcγRIIB): 175 RU
Corrected response (RU) (human FcγRIIIA (F158) [12]): 889 RU
Corrected response (RU) [13]: 501 RU
Corrected response (RU) (human FcγRIIA (R131)): 345 RU
Corrected response (RU) (human FcγRIIIA (F158) [14]): 588 RU
Corrected response (RU) (human FcRn [15]): 650 RU
Corrected response (RU) [16]: 2570 RU

B2: anti-CD20 human IgG1 L234A/L235A (LALA) (antibody)
heavy: not shown
light: B1 light
notes: 2-65 and 10.16 are separate lots; also called 2-65; 10.16
Corrected response (RU) [1]: 524 RU
Corrected response (RU) (cynomolgus monkey FcRn): 1390 RU
Corrected response (RU) [2]: 440 RU
Corrected response (RU) (human FcRn [3]): 612 RU
Corrected response (RU) [4]: 654 RU
Corrected response (RU) [5]: 752 RU
Corrected response (RU) [6]: 452 RU
Corrected response (RU) [8]: 832 RU
Corrected response (RU) (rat FcγRI): 2.3 RU
Corrected response (RU) (mouse FcγRI): 6.3 RU
Corrected response (RU) (rabbit FcγRI): 141 RU
Corrected response (RU) [17]: 478 RU
Corrected response (RU) [10]: 577 RU
Corrected response (RU) [11]: 597 RU
Corrected response (RU) (human FcγRIIB): 13.2 RU
Corrected response (RU) (human FcγRIIIA (F158) [12]): 57.4 RU
Corrected response (RU) [13]: 16 RU
Corrected response (RU) (human FcγRIIA (R131)): 21.8 RU
Corrected response (RU) (human FcRn [15]): 614 RU

B3: anti-CD20 human IgG1 L234A/L235A/P329G (LALAPG reference) (antibody)
heavy: not shown
light: B1 light
notes: also called 2-66
Corrected response (RU) [1]: 62.4 RU
Corrected response (RU) (cynomolgus monkey FcRn): 1270 RU
Corrected response (RU) (human FcRn [3]): 543 RU
Corrected response (RU) [4]: 40.7 RU
Corrected response (RU) [5]: 53.4 RU
Corrected response (RU) [8]: 72.9 RU
Corrected response (RU) (rat FcγRI): 0.5 RU
Corrected response (RU) (mouse FcγRI): -0.2 RU
Corrected response (RU) (rabbit FcγRI): 5.6 RU
Corrected response (RU) [17]: 49.5 RU
Corrected response (RU) (human FcγRIIB): -0.6 RU
Corrected response (RU) (human FcγRIIIA (F158) [12]): -0.4 RU
Corrected response (RU) [13]: -1.6 RU
Corrected response (RU) (human FcγRIIA (R131)): 0.9 RU
Corrected response (RU) (human FcRn [15]): 557 RU

Further lines, results first:

Corrected response (RU) [1]: -1 RU
Corrected response (RU) [2]: -8.9 RU
Corrected response (RU) [4]: -12.1 RU
Corrected response (RU) [5]: -23.8 RU
Corrected response (RU) [6]: -9.2 RU
Corrected response (RU) [18]: -0.5 RU
Corrected response (RU), Mean [9]: 0.6 RU
Corrected response (RU) [10]: -20.7 RU
Corrected response (RU) [11]: -23.4 RU
Corrected response (RU) [16]: 0.3 RU
B4: anti-CD20 human IgG1 L234S/L235T/G236R (antibody)
heavy: QVQLQQPGAELVKPGASVKMSCKASGYTFTSYNMHWVKQTPGRGLEWIGAIYPGNGDTSYNQKFKGKATLTADKSSSTAYMQLSSLTSEDSAVYYCARSTYYGGDWYFNVWGAGTTVTVSSASTKGPSVFPLAPSSKSTSGGTAALGCLVKDYFPEPVTVSWNSGALTSGVHTFPAVLQSSGLYSLSSVVTVPSSSLGTQTYICNVNHKPSNTKVDKKVEPKSCDKTHTCPPCPAPESTRGPSVFLFPPKPKDTLMISRTPEVTCVVVDVSHEDPEVKFNWYVDGVEVHNAKTKPREEQYNSTYRVVSVLTVLHQDWLNGKEYKCKVSNKALPAPIEKTISKAKGQPREPQVYTLPPSRDELTKNQVSLTCLVKGFYPSDIAVEWESNGQPENNYKTTPPVLDSDGSFFLYSKLTVDKSRWQQGNVFSCSVMHEALHNHYTQKSLSLSPGK
light: B1 light
notes: also called 2-52; 1-150

binding result [19]: no binding (tested: 5 µg/mL)
Mean Absorbance [20]: 1.53 absorbance
Mean Absorbance [21]: 0.009 absorbance
B5: anti-CD52 (alemtuzumab variable regions) human IgG1 wild type reference (antibody)
heavy: not shown
light: not shown
notes: also called 4-1; wild-type CD52 antibody
